{
  "source": "paper PMC9849236",
  "key": {"SNAP-hGLP1R (human)": {"biological_target": "SNAP-hGLP1R (human) (UniProt P43220)"}, "SNAPf-mGLP1R (mouse)": {"biological_target": "SNAPf-mGLP1R (mouse) (UniProt O35659)", "sequence (O35659 22-463)": "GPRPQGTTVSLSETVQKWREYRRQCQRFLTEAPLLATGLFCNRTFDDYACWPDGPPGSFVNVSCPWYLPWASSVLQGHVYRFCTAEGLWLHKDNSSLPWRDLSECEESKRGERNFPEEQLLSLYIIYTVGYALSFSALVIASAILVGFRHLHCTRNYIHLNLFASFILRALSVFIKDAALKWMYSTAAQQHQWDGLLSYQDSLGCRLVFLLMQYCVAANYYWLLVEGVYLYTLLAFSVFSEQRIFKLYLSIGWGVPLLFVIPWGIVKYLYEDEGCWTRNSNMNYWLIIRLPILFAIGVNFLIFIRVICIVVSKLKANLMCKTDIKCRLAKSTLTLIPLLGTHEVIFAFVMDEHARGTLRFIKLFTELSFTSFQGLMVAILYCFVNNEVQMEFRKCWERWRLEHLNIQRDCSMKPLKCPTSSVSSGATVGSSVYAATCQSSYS"}, "hGLP1R-GFP (human)": {"biological_target": "hGLP1R-GFP (human) (UniProt P43220)"}},
  "data": [
    {"substance": "Exendin4(1-39) (peptide)", "values": [
      {"measurement": "EC50 of Exendin4-induced cAMP generation (LANCE cAMP assay, transfected AD293 cells, 30 min with ligand + 100 µM IBMX)", "setting": "SNAP-hGLP1R (human)", "value": 8.02, "unit": "pM"},
      {"measurement": "EC50 of Exendin4-induced cAMP generation (LANCE cAMP assay, transfected AD293 cells, 30 min with ligand + 100 µM IBMX)", "setting": "SNAPf-mGLP1R (mouse)", "value": 4.22, "unit": "pM"},
      {"measurement": "EC50 of Exendin4-induced cAMP generation (LANCE cAMP assay, transfected AD293 cells, 30 min with ligand + 100 µM IBMX)", "setting": "hGLP1R-GFP (human)", "value": 5, "unit": "pM"}
    ]}
  ]
}
